The DeepSol protein solubility set

Experiment: soluble on expression in E. coli; label from the status in PepcDB or PDB records

Soluble on expression in E. coli, soluble:
MGSSHHHHHHSSGLVPRGSVCMTEIATTSGARSVGLLSVGAYRPERVVTNDEICQHIDSSDEWIYTATGIKTRRFAADDESAASMATEACRRALSNAGLSAADIDGVIVTTNTHFLQTPPAAPMVAASLGAKGILGFDLSAGCAGFGYALGAAADMIRGGGAATMLVVGTEKLSPTIDMYDAGNCFIFADGAAAVVVGETPFQGIGPTVAGSDGEQADAIRQDIDWITFAQNPSGPRPFVRLEGPAVFRWAAFKMGDVGRRAMDAAGVRPDQIDVFVPHQANSRINELLVKNLQLRPDAVVANDIEHTGNTSAASIPLAMAELLTTGAAKPGDLALLIGYGAGLSYAAQVVRMPKG, MKNVGDLMQRLQKMMPAHITPAFKTGEELLAWQKEQGEIRAAALARENRAMKMQRTFNRSGIRPLHQNCSFDNYRVECDGQMNALSKARQYVDEFDGNIASFVFSGKPGTGKNHLAAAICNELLLRGKSVLIITVADIMSAMKDTFSNRETSEEQLLNDLSNVDLLVIDEIGVQTESRYEKVIINQIVDRRSSSKRPTGMLTNSNMEEMTKMLGERVMDRMRLGNSLWVNFTWDSYRSRVTGKEYLEHHHHHH, MYFVDRSKIEKTLGFFEHQLALFDSQTDWQSEIGELALQRIGHLLIECILDTGNDMIDGFIMRDPGSYDDIMDILVDEKVVTEKEGDELKKLIAYRKTLVQQYLLADSGELYRLIKAHQTALQDFPKRIRSYLETELGPVSAFKLEHHHHHH, MGHHHHHHSHMENKMESIEQQVEVLLEQEPQLLPAAMAERLGVTEFDVVAALPQEMVAISPGEQAQTILESLVGFGPVTTIVHSFGSIFEVKAPFPKGKVARGYYNLMGREGELHGHLKLDNVKNIALVSKPFMGRESHYFGFFSECGSNIFKVYLGRDEKRELIAEQVTAFRAMQAELNQ, MGHHHHHHSHMSAVGTATPYLHHPGDSHSGRVSFLGAQLPPEVAAMARLLGDLDRSTFRKLLKFVVSSLQGEDCRDCCSVLGSAPTCRRAAGCLLAGMHTLLQQALRLPPTSLKPDTFRDPAPGALHPPRPGRGLGQRGIWEPAALLDSVAQQQGAWLPHVADFRWRVDVAISTSALARSLQPSVLMQLKLSDGSAYRFEVPTAKFQELRYSVALVLKEMADLEKRCERRLQD, MKSLPYTIALLFCGLIIVSMAAKGHSTDTDESVQKWEQLAWSKIQDEYKGASFSDYAYMGRTEVNDQQTKDVFRVTVRQKDDTFSVRAEVYFHPVTNHMISINVFRLMAGDPLEHHHHHH, DIQMTQSPSSLSASLGERVSLTCRASQDIGSKLYWLQQEPDGTFKRLIYATSSLDSGVPKRFSGSRSGSDYSLTISSLESEDFVDYYCLQYASSPYTFGGGTKLAIKRADAAPTVSIFPPSSEQLTSGGASVVCFLNNFYPKDINVKWKIDGSERQNGVLNSWTDQDSKDSTYSMSSTLTLTKDEYERHNSYTCEATHKTSTSPIVKSFNRNEC, MANYPKELPAQTQSRQPGIESEMNPSPVYEYEDYKGADKLKGKVALITGGDSGIGRAVSVAYAKEGADIAIVYKDEHEDAEETKKRVEQEGVKCLLIAGDVGEEEFCNEAVEKTVKELGGLDILVNNAGEQHPKESIKDITSEQLHRTFKTNFYSQFYLTKKAIDYLKPGSAIINTTSINPYVGNPTLIDYTATKGAINAFTRTMAQALVKDGIRVNAVAPGPIWTPLIPATFPEETVAQFGQDTPMGRPGQPVEHVGCYVLLASDESSYMTGQTLHVNGGNFVT, MSLETSTQCTSAVAHTSGRRNYNEDRICVATNIEGADLFAVFDGHNGHEAATLCRNKLKQVYGSCHGNINDTFQSLNDIVSKETTAGCTATIVAVKQNSIEVGNCGDSPAYVIRKDKSIEKITYDHKATDPKEEEMIVKNGGVVMNLFGTKRVNGQIMVTRSIGDRSLHPPMTSIPTTKIISKEDIISICVMSDGVTDALTDLEIHDIMTNGQPIEIRAQTIRNQAYKEGSKDNICVVVVDLEGHHHHHH, GMDTNGVLYAANMTNALAKEIPESKWDIQLIPELGTLRKLFIHIVRVRDVYRDGLKTGSIKFPGRLASDEHRLLDELERSMEELVFEFKQTTFNSIKMGENYLSIMELLGTVIQHEGIHQGQYYVALKQSGINLPKQWVQDWHM

Soluble on expression in E. coli, not soluble:
MDRVTRYPILGIPQAHRGTGLVLDGDTSYTYHLVCMGPEASGWGQDEPQTWPTDHRAQQGVQRQGVSYSVHAYTGQPSPRGLHSENREDEGWQVYRLGARDAHQGRPTWALRPEDGEDKEMKTYRLDAGDADPRRLCDLERERWAVIQGQAVRKSSTVATLQGTPDHGDPRTPGPPRSTPLEENVVDREQIDFLAARQQFLSLEQANKGAPHSSPARGTPAGTTPGASQAPKAFNKPHLANGHVVPIKPQVKGVVREENKVRAVPTWASVQVVDDPGSLASVESPGTPKETPIEREIRLAQEREADLREQRGLRQATDHQELVEIPTRPLLTKLSLITAPRRERGRPSLYVQRDIVQETQREEDHRREGLHVGRASTPDWVSEGPQPGLRRALSSDSILSPAPDARAADPAPEVRKVNRIPPDAYQPYLSPGTPQLEFSAFGAFGKPSSLSTAEAKAATSPKATMSPRHLSESSGKPLSTKQEASKPPRGCPQANRGVVRWEYFRLRPLRFRAPDEPQQAQVPHVWGWEVAGAPALRLQKSQSSDLLERERESVLRREQEVAEERRNALFPEVFSPTPDENSDQNSRSSSQASGITGSYSVSESPFFSPIHLHSNVAWTVEDPVDSAPPGQRKKEQWYAGINPSDGINSEVLEAIRVTRHKNAMAERWESRIYASEEDD, MAHHHHHHMPAAVPVRTPPYLVDVAANLTDCVFRGVDWKSNRLHDDDFDYVLARAQERNVQQIIITGTSLAQSVKAIALCRRYPDRRLLCTVGVHPAHCGEFLRPLDRDEVQRVAESASSVVMPHHEKSAAAMTAEREEAWAQERLDYLVDLATRNRDVVVAMGEIGIDYAEVACCPREVQEKYFARQLTAFAPLQLPFLFHSRACGMMFVSHLQDTWTRIASDAAATEAVADNAGASSPSPHAQLRGVVHSFNGTLEEQEALLSMGLYLSLNSSAFREASLAAQVALIPLGRLMFETDAPWCDVRSKDYGAQFVRTVFKTIKRKKPFEMGACLERRNEPCHLVQVMEEYLGCAKASATSPEDPLSRMDEATLVAAVYENCKRLFQL, MGSDKIHHHHHHMRDRTVEIMWQAIDALDFSRIKAKLSHQKQVQWTPESLESAEAGYRQFLKMAAKYPGVPAVPSEQVDAFWHAHILDTRRYASDCVNIFGHVLHHDPYVGIDGPEDEARLFEMAAQSDVLSMREFGSPLTSASYFAQAAADEPAYCAREATAAEPAYCARMAKGPSYCARMGKALEPAYCAREATANEVVKRDHAAGGQAAYCALTLSQPASC, MRILVSCANGSGTSLMMMRSVEKAMKELGVPITKIHHCAISEGKSSASQYDVVFTPVNFLQMFQQAEKRGVTVIGIKNVMSAKEIQEKYMASDRYQKSE, MGSDKIHHHHHHMKAVNENLKEQFVKRNKLAICATLRELKKNDTSLMVHHSHGQFISKILDVVPDNNLFVFDLGGIERENSRALYAGALSFIAEPAGAKVEFNAEIAKTVNYDGLPAFSAQIPELLYLIQRRTYFRINTPLWPPLTCRGELPDDSVFTFTIKDLSLGGLSLYTDRDTTGLLTEGDIIKSVEMDLADHGFFCVDLQFVGQAMVKIVDNKGELKLTQRLSFKFPSLNAAQERDLQQVIFELEKLQNEKKKRFQEL, MVCWSSHTASKQGNLMNQFYVHVRLFEDTAEQTKKFEELMLNFLYQKTVKESDDSCCRLIPEGYILKSTMNCQQILDQTFSIANSAGVDANIFVCKFEQSACLLPSASLVGNDFVHYDLTPKPIKLDS, MNSPNILLDSFKIALVKKDSKQAFSLIERLSLEQIKSLDLDALLSLKEMIAQSIELLEKEKEELQLQMHKAKKIQKFLS, MITAERYHDISMGHRVVGHDHKCRHLHGHNYRIHFICSAPALDSIGRVVDFGVIKELLCQWLEDHWDHKMMLWEQDPLLPALRATVPDDLVAVPFNPTAENMAVYLTEVVGPMQLAGTGVTLIGCRVDETRKCSASYTL, MTQPLVGKQILIVEDEPVFRSLLDSWFSSLGATTALAGDGVDALELMGRFTPDLMICDIAMPRMNGLKLVENLRNRGDQTPILVISATENMADIAKALRLGVEDVLLKPVKDLNRLRETVFACLYPNMFNSRVEEEERLFRDWDAMVSNPTAAAQLLQELQPPVQQVISHCRINYRQLVSADQPGLVLDIAPLSDNELAFYCLDVTRAGDNGVLAALLLRALFNGLLQDQLGQQKHRLPELGALLKQVNHLLRQANLPGQFPLFVGYYHSELKNLILVSAGLNATLNTGAHQVQISSGVPLGTLGNAYLNQLSQRCDSWQCQIWGAGGRLRLMLSAE, MGSDKIHHHHHHMALNKPKIVILGAGYGGLMTVTRLTKYVGPNDADITLVNKHNYHYETTWMHEASAGTLHHDRCRYQIKDVINQSRVNFVQDTVKAIKIDEKKVVLANGELQYDYLVIGLGAVPETFGIKGLKEYAFPIANINTSRLLREHIELQFATYNTEAEKRPDRLTIVVGGAGFTGIEFLGELAARVPELCKEYDVDRSLVRIICVEAAPTVLPGFDPELVDYAVHYLEENGVEFKIGTAVQECTPEGVRVGKKDEEPEQIKSQTVVWAAGVRGHPIVEEAGFENMRGRVKVNPDLRAPGHDNVFILGDSSLFMNEDTERPYPPTAQIAMQQGITVAKNLGRLIKGGELEEFKPDIKGTVASLGEHNAVGVVYGRKLKGTPASFMKKVIDNRSLFMIGGLGLTLKKGKFKFF, MGSDKIHHHHHHMKVNILMSTYNGQEFIAQQIQSIQKQTFENWNLLIRDDGSSDETPKIIADFAKSDARIRFINADKRENFGVIKNFYTLLKYEKADYYFFSDQDDVWQPQKLELTLASVEKENNQIPLMVYTDLTVVDRDLQVLHDSMIKTQSHHANTSLLEELTENTVTGGTMMVNHCLAKQWKQCYDDLIMHDWYLALLAASLGKLIYLDETTELYRQHESNVLGARTWSKRLKNWLRPHRLVKKYWWLVTSSQQQASHLLELDLSAANKAIIQAYVTLLDQSFLNRIKWLKQYGFAKNRAFHTFVFKTLIITKFGYRRK, MGSDKIHHHHHHMKIDELIALAAEQPTRISRRSGVSRSTLKRVGDGTSEPTLSTLREVALALGLDIKVAAHHACDPFAAAAARTLIDASVPENPHNQEILAWLHRFERWNINDPLTLVSEAGTLQGITHRQDAQFVKLNPRGIAELPELFQQHKTKWALSGAAAATVIMGQIVLGNSIVWHEPAHDLDVSALGTIVDVAEDADLILLPATVTELVGSYTQDRLNFVAPVQLVIDLHSLHMFEEADYLTSGWR, QKLGDGHYVMDGKVRIDQVNSLLGASIQEDVDTIGGLILKENIDIEAGESIRIGSYTIKVLKMDGRLIKQIDIKEEAGNTTGITAHHKLPLPEPVMLNSATLSEK, MAGRKEEELKDLTLLGNQGTTYSFTYNPNLLEVFDNKHPDRDYFVKFNCPEFTTLCPKTGQPDFATIYITYIPDKKCVESKSLKLYLFSFRNHGDFHEDCVNIIMNDLIKVMEPRYIEVWGKFTPRGGISIDPYCNWGRPGTKYEKMAEYRLLNHDLYPEKVDNR
